Experimental data: patent US20180155451A1 (published 2018)

Target: T1, FcγRIa extracellular domain with C-terminal His tag (human, UniProt P12314 16-292)
T1 construct: extracellular domain; also called FcgRI; CD64; not shown: His tag at the C terminus
Test: SPR Biacore, relative FcγRIa binding vs GpH7-B3/GpL16-k0

T1 sequence (P12314 16-292): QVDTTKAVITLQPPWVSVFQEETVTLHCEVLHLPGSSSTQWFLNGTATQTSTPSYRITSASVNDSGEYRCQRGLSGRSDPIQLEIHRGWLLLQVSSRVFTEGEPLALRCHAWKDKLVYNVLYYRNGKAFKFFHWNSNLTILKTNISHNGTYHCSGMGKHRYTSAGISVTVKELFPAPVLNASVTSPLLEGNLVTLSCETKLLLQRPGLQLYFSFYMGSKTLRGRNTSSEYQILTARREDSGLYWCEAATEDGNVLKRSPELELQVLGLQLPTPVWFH

Binder	Ho/Con_1a
GpH7-B3 variant T335_09D/GpL16-k0 (antibody, human IgG1, kappa, mutation in both H chains; also called Ho Ab T335_09D; T335D) heavy: not shown light: DIVMTQSPLSLPVTPGEPASISCQASESLVHSNRNTYLHWYLQKPGQSPQLLIYKVSNRFSGVPDRFSGSGSGTDFTLKISRVEAEDVGVYYCSQNTHVPPTFGQGTKVEIERTVAAPSVFIFPPSDEQLKSGTASVVCLLNNFYPREAKVQWKVDNALQSGNSQESVTEQDSKDSTYSLSSTLTLSKADYEKHKVYACEVTHQGLSSPVTKSFNRGEC	107 % of HoCon Ab (=100)
GpH7-B3 variant T335_10E/GpL16-k0 (antibody, human IgG1, kappa, mutation in both H chains; also called Ho Ab T335_10E; T335E) heavy: not shown light: DIVMTQSPLSLPVTPGEPASISCQASESLVHSNRNTYLHWYLQKPGQSPQLLIYKVSNRFSGVPDRFSGSGSGTDFTLKISRVEAEDVGVYYCSQNTHVPPTFGQGTKVEIERTVAAPSVFIFPPSDEQLKSGTASVVCLLNNFYPREAKVQWKVDNALQSGNSQESVTEQDSKDSTYSLSSTLTLSKADYEKHKVYACEVTHQGLSSPVTKSFNRGEC	108 % of HoCon Ab (=100)
GpH7-B3 variant T335_11K/GpL16-k0 (antibody, human IgG1, kappa, mutation in both H chains; also called Ho Ab T335_11K; T335K) heavy: not shown light: DIVMTQSPLSLPVTPGEPASISCQASESLVHSNRNTYLHWYLQKPGQSPQLLIYKVSNRFSGVPDRFSGSGSGTDFTLKISRVEAEDVGVYYCSQNTHVPPTFGQGTKVEIERTVAAPSVFIFPPSDEQLKSGTASVVCLLNNFYPREAKVQWKVDNALQSGNSQESVTEQDSKDSTYSLSSTLTLSKADYEKHKVYACEVTHQGLSSPVTKSFNRGEC	103 % of HoCon Ab (=100)
GpH7-B3 variant T335_12R/GpL16-k0 (antibody, human IgG1, kappa, mutation in both H chains; also called Ho Ab T335_12R; T335R) heavy: not shown light: DIVMTQSPLSLPVTPGEPASISCQASESLVHSNRNTYLHWYLQKPGQSPQLLIYKVSNRFSGVPDRFSGSGSGTDFTLKISRVEAEDVGVYYCSQNTHVPPTFGQGTKVEIERTVAAPSVFIFPPSDEQLKSGTASVVCLLNNFYPREAKVQWKVDNALQSGNSQESVTEQDSKDSTYSLSSTLTLSKADYEKHKVYACEVTHQGLSSPVTKSFNRGEC	106 % of HoCon Ab (=100)
GpH7-B3 variant T335_15Y/GpL16-k0 (antibody, human IgG1, kappa, mutation in both H chains; also called Ho Ab T335_15Y; T335Y) heavy: not shown light: DIVMTQSPLSLPVTPGEPASISCQASESLVHSNRNTYLHWYLQKPGQSPQLLIYKVSNRFSGVPDRFSGSGSGTDFTLKISRVEAEDVGVYYCSQNTHVPPTFGQGTKVEIERTVAAPSVFIFPPSDEQLKSGTASVVCLLNNFYPREAKVQWKVDNALQSGNSQESVTEQDSKDSTYSLSSTLTLSKADYEKHKVYACEVTHQGLSSPVTKSFNRGEC	106 % of HoCon Ab (=100)
GpH7-B3 variant V266_19Q/GpL16-k0 (antibody, human IgG1, kappa, mutation in both H chains; also called Ho Ab V266_19Q; V266Q) heavy: not shown light: DIVMTQSPLSLPVTPGEPASISCQASESLVHSNRNTYLHWYLQKPGQSPQLLIYKVSNRFSGVPDRFSGSGSGTDFTLKISRVEAEDVGVYYCSQNTHVPPTFGQGTKVEIERTVAAPSVFIFPPSDEQLKSGTASVVCLLNNFYPREAKVQWKVDNALQSGNSQESVTEQDSKDSTYSLSSTLTLSKADYEKHKVYACEVTHQGLSSPVTKSFNRGEC	91.2 % of HoCon Ab (=100)
GpH7-B3 variant Y300_12R/GpL16-k0 (antibody, human IgG1, kappa, mutation in both H chains; also called Ho Ab Y300_12R; Y300R) heavy: not shown light: DIVMTQSPLSLPVTPGEPASISCQASESLVHSNRNTYLHWYLQKPGQSPQLLIYKVSNRFSGVPDRFSGSGSGTDFTLKISRVEAEDVGVYYCSQNTHVPPTFGQGTKVEIERTVAAPSVFIFPPSDEQLKSGTASVVCLLNNFYPREAKVQWKVDNALQSGNSQESVTEQDSKDSTYSLSSTLTLSKADYEKHKVYACEVTHQGLSSPVTKSFNRGEC	96.5 % of HoCon Ab (=100)

Target: T1, FcγRIa extracellular domain with …
Test: SPR Biacore, relative FcγRIa binding vs GpH7-A5/GpH7-B3/GpL16-k0

Binder	He/Con_1a
GpH7-A5/GpH7-B3 variant S298_11K/GpL16-k0 (antibody, human IgG1, kappa, mutation in one H chain only; also called He Ab S298_11K; S298K) heavy 1: not shown heavy 2: not shown light: DIVMTQSPLSLPVTPGEPASISCQASESLVHSNRNTYLHWYLQKPGQSPQLLIYKVSNRFSGVPDRFSGSGSGTDFTLKISRVEAEDVGVYYCSQNTHVPPTFGQGTKVEIERTVAAPSVFIFPPSDEQLKSGTASVVCLLNNFYPREAKVQWKVDNALQSGNSQESVTEQDSKDSTYSLSSTLTLSKADYEKHKVYACEVTHQGLSSPVTKSFNRGEC	109 % of HeCon Ab (=100)
GpH7-A5/GpH7-B3 variant S239_09D/GpL16-k0 (antibody, human IgG1, kappa, mutation in one H chain only; also called He Ab S239_09D; S239D) heavy 1: not shown heavy 2: not shown light: DIVMTQSPLSLPVTPGEPASISCQASESLVHSNRNTYLHWYLQKPGQSPQLLIYKVSNRFSGVPDRFSGSGSGTDFTLKISRVEAEDVGVYYCSQNTHVPPTFGQGTKVEIERTVAAPSVFIFPPSDEQLKSGTASVVCLLNNFYPREAKVQWKVDNALQSGNSQESVTEQDSKDSTYSLSSTLTLSKADYEKHKVYACEVTHQGLSSPVTKSFNRGEC	101 % of HeCon Ab (=100)
GpH7-A5/GpH7-B3 variant S239_14T/GpL16-k0 (antibody, human IgG1, kappa, mutation in one H chain only; also called He Ab S239_14T; S239T) heavy 1: not shown heavy 2: not shown light: DIVMTQSPLSLPVTPGEPASISCQASESLVHSNRNTYLHWYLQKPGQSPQLLIYKVSNRFSGVPDRFSGSGSGTDFTLKISRVEAEDVGVYYCSQNTHVPPTFGQGTKVEIERTVAAPSVFIFPPSDEQLKSGTASVVCLLNNFYPREAKVQWKVDNALQSGNSQESVTEQDSKDSTYSLSSTLTLSKADYEKHKVYACEVTHQGLSSPVTKSFNRGEC	101 % of HeCon Ab (=100)
GpH7-A5/GpH7-B3 variant S239_18N/GpL16-k0 (antibody, human IgG1, kappa, mutation in one H chain only; also called He Ab S239_18N; S239N) heavy 1: not shown heavy 2: not shown light: DIVMTQSPLSLPVTPGEPASISCQASESLVHSNRNTYLHWYLQKPGQSPQLLIYKVSNRFSGVPDRFSGSGSGTDFTLKISRVEAEDVGVYYCSQNTHVPPTFGQGTKVEIERTVAAPSVFIFPPSDEQLKSGTASVVCLLNNFYPREAKVQWKVDNALQSGNSQESVTEQDSKDSTYSLSSTLTLSKADYEKHKVYACEVTHQGLSSPVTKSFNRGEC	101 % of HeCon Ab (=100)
